{"source": "IntAct's records for PubMed 24553140", "parents": {"B1": {"name": "Autophagy-related protein 16-1 (Mus musculus), Q8C0J2 (parent)", "chain": "MSSGLRAADFPRWKRHIAEELRRRDRLQRQAFEEIILQYTKLLEKSDLHSVLTQKLQAEKHDMPNRHEISPGHDGAWNDSQLQEMAQLRIKHQEELTELHKKRGELAQLVIDLNNQMQQKDKEIQMNEAKISEYLQTISDLETNCLDLRTKLQDLEVANQTLKDEYDALQITFTALEEKLRKTTEENQELVTRWMAEKAQEANRLNAENEKDSRRRQARLQKELAEAAKEPLPVEQDDDIEVIVDETSDHTEETSPVRAVSRAATKRLSQPAGGLLDSITNIFGRRSVSSIPVPQDIMDTHPASGKDVRVPTTASYVFDAHDGEVNAVQFSPGSRLLATGGMDRRVKLWEAFGDKCEFKGSLSGSNAGITSIEFDSAGAYLLAASNDFASRIWTVDDYRLRHTLTGHSGKVLSAKFLLDNARIVSGSHDRTLKLWDLRSKVCIKTVFAGSSCNDIVCTEQCVMSGHFDKKIRFWDIRSESVVREMELLGKITALDLNPERTELLSCSRDDLLKVIDLRTNAVKQTFSAPGFKCGSDWTRVVFSPDGSYVAAGSAEGSLYVWSVLTGKVEKVLSKQHSSSINAVAWAPSGLHVVSVDKGSRAVLWAQP"}}, "data": [{"variants_of": "B1", "settings": "with mlp3a_mouse Map1lc3a", "values": [{"variant": "T300A", "effect of a mutation on the interaction": "decreasing interaction"}]}]}
